Drawing on PMC6093203, this text covers Kd for one substance.

This assay addresses F-ΔC2-WWP2 (UniProt O00308). As to the kind of experiment: fluorescence polarisation.

Usually Kd stands for the concentration at which binding is half-saturated. Low values mean higher affinity, high ones lower affinity. “non-phosphorylated PTEN (n-PTEN) (natural protein)” registered a Kd of 20 µM. In other words, the double-digit micromolar range.
